According to the supplement of paper PMC12855868:

B1: library; numbered along this chain (parent)
chain: MAAAGGARLLRAASAVLGGPAGRWLHHAGSRAGSSGLLRNRGPGGSAEASRSLSVSARARSSSEDKITVHFINRDGETLTTKGKVGDSLLDVVVENNLDIDGFGACEGTLACSTCHLIFEDHIYEKLDAITDEENDMLDLAYGLTDRSRLGCQICLTKSMDNMTVRVPETVADARQSIDVGKTS

Variants of: B1
Assay: scaled log2 fold change in cell abundance, elesclomol vs control (0 = silent mean, 1 = nonsense mean) (scaled log2 ratio); higher = higher viability under elesclomol (loss of FDX1 cuproptosis function)
Conditions: glucose 10 mM
[1] = with ABC1 FDX1 KO, elesclomol 5 nM, 14 days
[2] = with HEK293T FDX1 KO, elesclomol 40 nM, 11 days
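Note: variant abundance is its share of total variant reads in each endpoint sample, from next-generation sequencing of the integrated ORF PCR-amplified out of genomic DNA.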

Row | Variant | scaled log2 fold change [1] | scaled log2 fold change [2]
1 | S159K | 0.382 | -0.162
2 | S159A | 0.168 | -0.0471
3 | S159P | -1.13 | -0.284
4 | S159N | 0.273 | -0.128
5 | S159W | 0.0873 | 0.215
6 | S159T | -0.475 | 0.754
7 | S159V | 0.225 | 0.738
8 | S159D | -1.07 | -0.414
9 | S159R | -0.282 | 0.159
10 | S159Q | -0.52 | –
11 | S159F | -0.798 | 0.523
12 | S159M | -0.149 | -0.209
13 | S159I | -0.459 | 0.0583
14 | S159C | 0.095 | -0.0429
15 | S159Y | -0.0652 | -0.463
16 | S159E | -0.499 | -0.34
17 | S159H | -0.58 | 0.214
18 | S159G | -1.03 | -0.767
19 | S159L | -0.241 | 0.847
20 | K158D | 0.233 | 0.95

Row | Variant | scaled log2 fold change [1] | scaled log2 fold change [2]
21 | K158M | 0.185 | -0.505
22 | K158R | 0.0874 | -0.484
23 | K158S | 0.23 | -0.645
24 | K158Y | 0.0178 | -1.33
25 | K158I | -0.0888 | -0.515
26 | K158N | -0.716 | -0.562
27 | K158G | -0.426 | -0.842
28 | K158F | 0.241 | 0.189
29 | K158W | 0.161 | -0.562
30 | K158T | -0.0261 | 0.646
31 | K158C | 0.225 | 0.192
32 | K158P | 0.0465 | 0.515
33 | K158E | -0.265 | 0.159
34 | K158V | 0.0943 | -0.343
35 | K158L | 0.172 | -0.122
36 | K158Q | -0.363 | -0.446
37 | K158H | 0.174 | -0.704
38 | K158A | -0.146 | 0.138
39 | M160A | 0.233 | -0.241
40 | M160K | -0.0408 | 1.28

Row | Variant | scaled log2 fold change [1] | scaled log2 fold change [2]
41 | M160L | -0.304 | –
42 | M160F | 0.0868 | 0.149
43 | M160H | -0.251 | 0.0298
44 | M160I | 0.353 | 0.63
45 | M160D | -0.132 | 0.103
46 | M160N | 0.245 | -0.0466
47 | M160G | 0.381 | 0.247
48 | M160C | -0.675 | -0.515
49 | M160E | 0.143 | -0.299
50 | I154W | 0.968 | 0.877
51 | I154S | 0.481 | 0.0924
52 | I154P | 1.04 | 0.814
53 | I154N | 0.748 | 0.148
54 | I154T | -0.043 | -0.257
55 | I154R | 1.01 | 0.787
56 | I154Y | 0.82 | 0.121
57 | I154Q | 0.399 | 0.268
58 | I154M | 0.363 | 0.583
